Source: patent US20220048967A1 (published 2022)
Numbered stars: 1 amine (or outer) side, 2 acyl side, 3 side chain; on linkers, the order of the positions; unused ones are H or OH. Square brackets hold non-standard residues; d marks the D form. Side chains are listed from the residue outwards. Ends that are not written are not given here. * marks the point of attachment. C20 diacid = O=C(O)CCCCCCCCCCCCCCCCCCC(=O)*; αMePhe(2-F) = C[C@](N)(Cc1ccccc1F)C(=O)O; γGlu = O=C(O)[C@H](CCC(=O)[*:2])N[*:1]; αMeF = C[C@](N)(Cc1ccccc1)C(=O)O; AEEA = NCCOCCOCC(=O)O; Aib = CC(C)(N)C(=O)O

T1: human gastric inhibitory peptide receptor (GIPR) (human, UniProt P48546 22-466)
T1 sequence (looked up): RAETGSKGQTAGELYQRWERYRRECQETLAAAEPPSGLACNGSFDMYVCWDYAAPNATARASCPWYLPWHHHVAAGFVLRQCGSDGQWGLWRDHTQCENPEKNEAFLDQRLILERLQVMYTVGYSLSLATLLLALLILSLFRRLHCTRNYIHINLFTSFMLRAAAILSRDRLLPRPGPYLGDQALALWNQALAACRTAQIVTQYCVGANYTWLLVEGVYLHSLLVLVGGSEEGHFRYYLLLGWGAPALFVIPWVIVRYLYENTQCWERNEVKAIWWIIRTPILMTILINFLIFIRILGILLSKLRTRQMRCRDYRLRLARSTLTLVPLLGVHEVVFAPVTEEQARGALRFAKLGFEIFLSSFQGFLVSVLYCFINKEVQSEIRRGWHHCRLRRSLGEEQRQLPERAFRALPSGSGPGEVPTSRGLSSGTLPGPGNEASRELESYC

B1: Example 153 (peptide)
peptide: Y[Aib]EGT[αMePhe(2-F)]TSDYSIXLDEKAQ[Aib]EFIHYLIEGGPSSGAPPPS-NH2
modifications: not fully specified (residues 13, 17); printed as Y-Aib-EGT-αMeF(2F)-TSDYSI-αMeF-LDEK((2-[2-(2-Amino-ethoxy)-ethoxy]-acetyl)2-(γ-Glu)-CO-(CH2)18-CO2H)AQ-Aib-EFIHYLIEGGPSSGAPPPS-NH2
B2: Example 160 (peptide)
peptide: YXEGTXTSDXSIXLDEKAQXTFIXYLIEGGPSSGAPPPS
modifications: Y-Aib-EGT-αMeF(2F)-TSD-Aib-SI-αMeF-LDEK((2-[2-(2-Amino-ethoxy)-ethoxy]-acetyl)2-(γ-Glu)-CO-(CH2)18-CO2H)AQ-Aib-TFI-(D-Glu)-YLIEGGPSSGAPPPS-NH2
B3: Example 154 (peptide)
peptide: Y[Aib]EGT[αMePhe(2-F)]TSDHSIXLDEKAQ[Aib]EFIEYLIEGGPSSGAPPPS-NH2
modifications: not fully specified (residues 13, 17); printed as Y-Aib-EGT-αMeF(2F)-TSDHSI-αMeF-LDEK((2-[2-(2-Amino-ethoxy)-ethoxy]-acetyl)2-(γ-Glu)-CO-(CH2)18-CO2H)AQ-Aib-EFIEYLIEGGPSSGAPPPS-NH2
B4: Example 161 (peptide)
peptide: Y[Aib]EGT[αMePhe(2-F)]TSDHSI[αMeF]LDEK([AEEA-AEEA-γGlu-γGlu-C20 diacid])AQ[Aib]TFI[dE]YLIEGGPSSG-NH2
modifications: N-terminus assumed
SMILES: CC[C@H](C)[C@H](NC(=O)[C@H](CC(C)C)NC(=O)[C@H](Cc1ccc(O)cc1)NC(=O)[C@@H](CCC(=O)O)NC(=O)[C@@H](NC(=O)[C@H](Cc1ccccc1)NC(=O)[C@@H](NC(=O)C(C)(C)NC(=O)[C@H](CCC(N)=O)NC(=O)[C@H](C)NC(=O)[C@H](CCCCNC(=O)COCCOCCNC(=O)COCCOCCNC(=O)CC[C@H](NC(=O)CC[C@H](NC(=O)CCCCCCCCCCCCCCCCCCC(=O)O)C(=O)O)C(=O)O)NC(=O)[C@H](CCC(=O)O)NC(=O)[C@H](CC(=O)O)NC(=O)[C@H](CC(C)C)NC(=O)[C@](C)(Cc1ccccc1)NC(=O)[C@@H](NC(=O)[C@H](CO)NC(=O)[C@H](Cc1c[nH]cn1)NC(=O)[C@H](CC(=O)O)NC(=O)[C@H](CO)NC(=O)[C@@H](NC(=O)[C@](C)(Cc1ccccc1F)NC(=O)[C@@H](NC(=O)CNC(=O)[C@H](CCC(=O)O)NC(=O)C(C)(C)NC(=O)[C@@H](N)Cc1ccc(O)cc1)[C@@H](C)O)[C@@H](C)O)[C@@H](C)CC)[C@@H](C)O)[C@@H](C)CC)C(=O)N[C@@H](CCC(=O)O)C(=O)NCC(=O)NCC(=O)N1CCC[C@H]1C(=O)N[C@@H](CO)C(=O)N[C@@H](CO)C(=O)NCC(N)=O
B5: Example 159 (peptide)
peptide: Y[Aib]EGT[αMePhe(2-F)]TSD[αMeF]SIXLDEKAQ[Aib]EFIEYLIEGGPSSGAPPPS-NH2
modifications: not fully specified (residues 13, 17); printed as Y-Aib-EGT-αMeF(2F)-TSD-αMeF-SI-αMeF-LDEK((2-[2-(2-Amino-ethoxy)-ethoxy]-acetyl)2-(γ-Glu)-CO-(CH2)18-CO2H)AQ-Aib-EFIEYLIEGGPSSGAPPPS-NH2

What follows are binders tested against T1, human gastric inhibitory peptide … (assay: cell-based or functional assay).

First: B1
Second: B2
The “hGIPR cAMP EC50 ratio” value of the first is higher: 1.7 for the first, 0.00712 for the second.

Going from B3 to B4, the “hGIPR cAMP EC50 ratio” value falls from 5.9 to 0.706.

B5 was tested, and the “hGIPR cAMP EC50 ratio” value was 0.039.

Going from B1 to B2, the “hGIPR cAMP Rel EC50” value rises from 0.0634 nM to 21 nM (330-fold).

First: B3
Second: B4
The “hGIPR cAMP Rel EC50” value of the first is 9.5-fold lower: 0.0266 nM for the first, 0.254 nM for the second.

B5 was tested, and the “hGIPR cAMP Rel EC50” value was 4.6 nM.

What follows are binders tested against human GLP-1 receptor (GLP-1R) (human, UniProt P43220 24-463) (assay: cell-based or functional assay).

Compared with B1, B2 is higher in “hGLP1R cAMP EC50 ratio” value: 0.501 for the first, 1.24 for the second.

First: B3
Second: B4
The “hGLP1R cAMP EC50 ratio” value of the first is higher: 1.23 for the first, 0.0121 for the second.

With B5 the “hGLP1R cAMP EC50 ratio” value was 0.176.

Compared with B1, B2 is 2-fold lower in “hGLP1R cAMP Rel EC50” value: 0.0904 nM for the first, 0.0461 nM for the second.

Compared with B3, B4 is 120-fold higher in “hGLP1R cAMP Rel EC50” value: 0.0393 nM for the first, 4.8 nM for the second.

In the case of B5, the “hGLP1R cAMP Rel EC50” value is reported as 0.33 nM.
